Measured values published in US20230312704A1 (SHANGHAI ESCUGEN BIOTECHNOLOGY, published 2023).
Substitutions are numbered along the chain they refer to.

B1: 5-G17 (mouse hybridoma clone, supernatant) (antibody, V domains shown)
VH: EVKLVESGGGLVKPGGSLKLSCAASGFTISDYGMAWVRQAPGKGPEWVAFISNLAYSIHYVDTVTGRFTISRENAKNTLYLEMRSLRSEDTAMYYCARMYYGNALDYWGQGTSVTVSS
VL: DIVMTQSPSSLTVTTGEKVTMSCKSSQNLLNSGNQKNYLTWYQQKPGQPPKLLIYWASTRESGVPDRFTGSGSGTDFTLTISSVQAEDLAVYYCQNDYSFPLTFGAGTKLELK
notes: Antibody as secreted by the hybridoma; also called subclones 5-G17-30 and 5-G17-6
B2: human-mouse chimeric positive control antibody 163E12 (antibody, human IgG1, kappa, V domains shown)
VH: QIQLVQSGPELKKPGETVKISCKASGYTFTNYGMNWVKQAPGKGLKWMGWINTNTGEPTYAEEFKGRFAFSLETSASTAYLQINNLKNEDTATYFCARLGFGNAMDYWGQGTSVTVSS
VL: DIVMTQSPSSLTVTAGEKVTMSCKSSQSLLNSGNQKNYLTWYQQKPGQPPKLLIYWASTRESGVPDRFTGSGSGTDFTLTISSVQAEDLAVYYCQNDYSYPLTFGAGTKLELKR
notes: Human-mouse chimeric antibody expressed in CHOS cells and purified on Protein A. It was detected with an anti-human Fc secondary antibody; also called home-made positive control (Benchmarker) chimeric antibody 163E12
B3: purified recombinant mouse monoclonal antibody 5-G17 (mouse IgG2a, kappa) (antibody, V domains shown)
VH: B1 VH
VL: B2 VL with A15T, S28N, Y100F
notes: Expressed in HEK293 cells and purified on Protein A; also called recombinant and purified mouse IgG2a type 5-G17
B4: purified recombinant mouse monoclonal antibody 5-I10 (mouse IgG2a, kappa) (antibody, V domains shown)
VH: EIQLQQSGAELVKPGASVKISCKAPGYSFTDYNMNWVKQSHGKSLEWIGNINSYYGSTSYNQKFKGKATLTVDRSSSTAYMQLNSLTSEDSAVYYCTNFDRGNSFPYWGHGTLVTVSA
VL: B2 VL with A15V, S22T, P49S, D66E, S71R, D97G, L102F, A106S, K109N, L112I
notes: also called recombinant and purified mouse IgG2a type 5-I10
B5: 5-I10 (mouse hybridoma clone, supernatant) (antibody, V domains shown)
VH: B4 VH
VL: DIVMTQSPSSLTVTVGEKVTMTCKSSQSLLNSGNQKNYLTWYQQKPGQSPKLLIYWASTRESGVPERFTGRGSGTDFTLTISSVQAEDLAVYYCQNGYSYPFTFGSGTNLEIK
notes: Antibody as secreted by the hybridoma; also called subclones 5-I10-33 and 5-I10-18

Experiments:
[1] = molecular target: T1, human CLDN18 splice variant 2 (Claudin 18.2, hCLDN18.2) (human); assay: IHC with hybridoma supernatant on FFPE sections of HEK293-hCLDN18.2 cell blocks
T1 construct: The same entry is used for CLDN18.2 in human stomach and gastric cancer FFPE tissue (IHC); also called HEK293-hCLDN18.2; HEK293-CLDN18.2

[2] = molecular target: T2, mouse CLDN18.1 (mCLDN18.1) (mouse, UniProt P56857 1-264); assay: flow cytometry on HEK293-mCLDN18.1 cells, paraformaldehyde-fixed and non-fixed
T2 construct: Stably expressed on HEK293 cells; the lung-type isoform is meant; also called HEK293-mCLDN18.1

[3] = molecular target: T3, mouse CLDN18.2 (mCLDN18.2) (mouse, UniProt P56857 10-264); assay: flow cytometry on HEK293-mCLDN18.2 cells, paraformaldehyde-fixed and non-fixed
T3 construct: Stably expressed on HEK293 cells; the stomach-type isoform is meant; also called mouse mhCLDN18.2; m hCLDN18.2
T3 chain: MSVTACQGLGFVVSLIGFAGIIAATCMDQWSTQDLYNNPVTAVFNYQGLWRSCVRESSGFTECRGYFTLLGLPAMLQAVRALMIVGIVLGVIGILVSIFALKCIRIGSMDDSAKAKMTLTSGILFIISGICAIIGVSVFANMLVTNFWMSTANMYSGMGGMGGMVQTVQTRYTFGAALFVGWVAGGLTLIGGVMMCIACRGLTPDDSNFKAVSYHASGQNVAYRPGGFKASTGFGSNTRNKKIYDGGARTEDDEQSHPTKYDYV

[4] = molecular target: T1, human CLDN18 splice variant 2 (Claudin …); assay: flow cytometry on HEK293-hCLDN18.2 cells, paraformaldehyde-fixed and non-fixed
[5] = molecular target: T1, human CLDN18 splice variant 2 (Claudin …); assay: flow cytometry on HEK293-hCLDN18.2 cells, 3-fold dilutions from 10 µg/mL, 8 points

| Binder | binding result [1] | binding result [5] | further results |
| --- | --- | --- | --- |
| B1 | binds | – | – |
| B2 | – | – | binding result [2]: no binding; binding result [3]: binds; binding result [4]: binds |
| B3 | – | binds | – |
| B4 | – | binds | – |
| B5 | binds | – | – |
